Consider ten molecules from US12624112 (MABWELL SHANGHAI BIOSCIENCE, dated 2026).

For orientation: IC50 means the concentration that gives 50% inhibition. A higher IC50 goes with weaker potency.

Sequences and labels used below:
B1: 5888-116-H1L1 (antibody, human IgG4 S228P, kappa, V domains shown)
VH: QVQLVQSGAEVKKPGASVKVSCKASGYTFTDSEMYWVRQAPGQGLEWMGAIDPETGDTAFNQKFKGRVTMTADKSTSTAYMELSSLRSEDTAVYYCTRAFDNDNDDGFAYWGQGTMVTVSS
VL: DIQMTQSPSSLSASVGDRVTITCSASSSVNYMHWYQQKPGKAPKRLIYDTSKLASGVPSRFSGSGSGTDYTFTISSLQPEDAATYYCQQWSSNPLTFGQGTKLEIKR
B2: 5888-357-H1L1 (antibody, human IgG4 S228P, kappa, V domains shown)
VH: QVQLVQSGAEVKKPGASVKVSCKASGYRFTDSEMHWVRQAPGQGLEWMGTIDPETGGTVYNQKFKGRVTMTADRSTSTVYMELSSLRSEDTAVYYCTRAFYNDFDDGFAYWGQGTMVTVSS
VL: EIVMTQSPATLSLSPGERATLSCSASTSVSYMHWYQQKPGQAPRRLIYDTSKLASGIPARFSGSGSGTDYTLTISSLEPEDAAVYYCQQWSSNPLTFGGGTKVEIKR
B3: 5888-153-H1L0 (antibody, human IgG4 S228P, kappa, V domains shown)
VH: QVQLVQSGAEVKKPGASVKVSCKASGYTFTDYELHWVRQAPGQGLEWMGTIDPETGDTVYNQKFKARVTMTADKSTSTAYMELSSLRSEDTAVYYCTRAFYNDYDDGFAYWGQGTLVTVSS
VL: EIVLTQSPATLSLSPGERATLSCSVSSSVSYMHWYQQKPGQAPRLLIYDTSKLASGIPARFSGSGSGTDFTLTISSLEPEDFAVYYCQQWNSSPLTFGGGTKVEIKR
B4: 5888-116-H3L1 (antibody, human IgG4 S228P, kappa, V domains shown)
VH: QVQLVQSGAEVKKPGASVKVSCKASGYTFTDSEMYWVRQAPGQGLEWMGAIDPETGDTAFNQKFKGRVTMTADKSTSTAYMELSSLRSEDTAVYYCTRAFDNDNDDAFAYWGQGTMVTVSS
VL: DIQMTQSPSSLSASVGDRVTITCSASSSVNYMHWYQQKPGKAPKRLIYDTSKLASGVPSRFSGSGSGTDYTFTISSLQPEDAATYYCQQWSSNPLTFGQGTKLEIKR
B5: 5887-41-H1L1 (antibody, human IgG4 S228P, kappa, V domains shown)
VH: QVQLQESGPGLVKPSQTLSLTCTVSGYSITSDYAWDWIRQPPGKGLEWIGYIRYSGDTYYNPSLKSRVTISRDTSKNQFSLKLSSVTAADTAVYYCATTMMDTMDYWGQGTLVTVSS
VL: DIVLTQSPASLAVSPGQRATITCRASKSVSTSGNSYMHWYQQKPGQPPKLLIYLASNLESGVPARFSGSGSGTDFTLTINPVEANDAANYYCQHSREFPLTFGQGTKLEIKR
B6: 5888-379-H0L0 (antibody, human IgG4 S228P, kappa, V domains shown)
VH: QVQLVQSGAEVKKPGASVKVSCKASGYTFINYGMNWVRQAPGQRLEWMGWINTYIGEPTYGDNFKGRVTITRDTSASTAYMELSSLRSEDTAVYYCAREGDGFAYWGQGTLVTVSS
VL: DIQMTQSPSSLSASVGDRVTITCKSSQSLLYSGNQNNYLAWYQQKPGKVPKLLIYGASTRESGVPSRFSGSGSGTDFTLTISSLQPEDVATYYCQNDHSYPYTFGGGTKVEIKR
B7: 5888-379-H1L1 (antibody, human IgG4 S228P, kappa, V domains shown)
VH: QVQLVQSGAEVKKPGASVKVSCKASGYTFINYGMNWVRQAPGQRLEWMGWINTYIGEPTYGDNFKGRVTITRDTSASTAYMELSSLRSEDTAVYYCAREGEGFAYWGQGTLVTVSS
VL: DIQMTQSPSSLSASVGDRVTITCKSSQSLLYSGNQNNYLAWYQQKPGKVPKLLIYGASTRESGVPSRFSGSGSGTDFTLTISSLQPEDLATYYCQNDHSYPYTFGGGTKVEIKR
B8: 5888-153-H0L0 (antibody, human IgG4 S228P, kappa, V domains shown)
VH: QVQLVQSGAEVKKPGASVKVSCKASGYTFTDYELHWVRQAPGQGLEWMGTIDPETGDTVYNQKFKARVTMTRDTSTSTVYMELSSLRSEDTAVYYCARAFYNDYDDGFAYWGQGTLVTVSS
VL: EIVLTQSPATLSLSPGERATLSCSVSSSVSYMHWYQQKPGQAPRLLIYDTSKLASGIPARFSGSGSGTDFTLTISSLEPEDFAVYYCQQWNSSPLTFGGGTKVEIKR
B9: 5888-153-H0L2 (antibody, human IgG4 S228P, kappa, V domains shown)
VH: QVQLVQSGAEVKKPGASVKVSCKASGYTFTDYELHWVRQAPGQGLEWMGTIDPETGDTVYNQKFKARVTMTRDTSTSTVYMELSSLRSEDTAVYYCARAFYNDYDDGFAYWGQGTLVTVSS
VL: EIVMTQSPATLSLSPGERATLSCSVSSSVSYMHWYQQKPGQAPRRLIYDTSKLASGIPARFSGSGSGTDYTLTISSLEPEDAAVYYCQQWNTSPLTFGGGTKVEIKR
B10: 5887-537-H1L0 (antibody, human IgG4 S228P, kappa, V domains shown)
VH: QVTLKESGPTLVKPTQTLTLTCTFSGFSLSTSGMGVGWIRQPPGKALEWLAHIWWDDVKQYNPALKSRLTITKDTSKSQVVLTMTNMDPVDTATYYCARIGGDYDYFDFWGQGTTVTVSS
VL: DIVLTQSPASLAVSPGQRATITCRASESVEYSGTSLMQWYQQKPGQPPKLLIYVASNVESGVPARFSGSGSGTDFTLTINPVEANDTANYYCQQSRKVPWTFGQGTKLEIKR

The assay has as its target Human ST2-fc (human) (UniProt Q01638). As to the kind of experiment: competition ELISA, coated ST2-fc, competitor IL33-his.
For B1, the IC50 was 0.486 mg/L, the Maximum inhibition rate was determined as 94.9% and the Relative activity compared with CNTO7160 is 219%.

Take B2: the IC50 amounted to 0.49 mg/L, the Maximum inhibition rate was 93.2% and the Relative activity compared with CNTO7160 was determined as 257%.

B3: the IC50 turned out to be 1.32 mg/L, the Maximum inhibition rate amounted to 92.5% and the Relative activity compared with CNTO7160 is 86.2%.

In the case of B4, the IC50 is 0.611 mg/L, the Maximum inhibition rate came to 90.7% and the Relative activity compared with CNTO7160 amounted to 187%.

With B5, the IC50 came out at 2.23 mg/L, the Maximum inhibition rate worked out at 92.4% and the Relative activity compared with CNTO7160 is 56.2%.

Take B6: the IC50 turned out to be 0.488 mg/L, the Maximum inhibition rate came out at 90.5% and the Relative activity compared with CNTO7160 was determined as 180%.

On to B7, for which the IC50 came to 0.317 mg/L, the Maximum inhibition rate turned out to be 89.5% and the Relative activity compared with CNTO7160 was 276%.

For B8, the IC50 was determined as 2.57 mg/L, the Maximum inhibition rate amounted to 92.9% and the Relative activity compared with CNTO7160 was 44.3%.

On to B9, for which the concentration for half-maximal inhibition (IC50) came to 0.474 mg/L, the Maximum inhibition rate is 93.5% and the Relative activity compared with CNTO7160 was 240%.

For the molecule B10, the IC50 came out at 0.0882 mg/L, the Maximum inhibition rate amounted to 88.3% and the Relative activity compared with CNTO7160 was found to be 1210%.
